From PMC11964265
Several values for one entry are separate records, joined by “and”; a condition that tells them apart may be missing. Identical values can stand only once.

How the values were obtained:
[1] = molecular target: Naegleria fowleri cystatin (recombinant, without signal presequence) (Naegleria fowleri (strain HB-1)); experiment: SEC; analytical size-exclusion chromatography, Superdex 200 Increase 10/300 GL, 20 mM Tris-HCl, 150 mM NaCl, pH 7.5; mass from calibration with Gel Filtration Standard (Bio-Rad)
[2] = molecular target: Recombinant human cathepsin K holoenzyme (human) (UniProt P43235)
[3] = molecular target: Cathepsin L holoenzyme from human liver (human)
Cathepsin L holoenzyme from human liver (human), sequence (P07711 18-333): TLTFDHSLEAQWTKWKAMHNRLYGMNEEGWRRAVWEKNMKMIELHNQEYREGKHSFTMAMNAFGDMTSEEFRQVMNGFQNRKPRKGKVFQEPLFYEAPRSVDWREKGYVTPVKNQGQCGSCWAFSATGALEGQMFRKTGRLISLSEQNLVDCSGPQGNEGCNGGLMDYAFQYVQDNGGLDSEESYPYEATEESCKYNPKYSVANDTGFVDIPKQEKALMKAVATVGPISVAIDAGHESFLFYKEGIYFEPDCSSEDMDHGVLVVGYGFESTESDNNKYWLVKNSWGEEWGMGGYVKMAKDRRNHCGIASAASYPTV

Recombinant human cathepsin K holoenzyme (human), sequence (P43235 16-329): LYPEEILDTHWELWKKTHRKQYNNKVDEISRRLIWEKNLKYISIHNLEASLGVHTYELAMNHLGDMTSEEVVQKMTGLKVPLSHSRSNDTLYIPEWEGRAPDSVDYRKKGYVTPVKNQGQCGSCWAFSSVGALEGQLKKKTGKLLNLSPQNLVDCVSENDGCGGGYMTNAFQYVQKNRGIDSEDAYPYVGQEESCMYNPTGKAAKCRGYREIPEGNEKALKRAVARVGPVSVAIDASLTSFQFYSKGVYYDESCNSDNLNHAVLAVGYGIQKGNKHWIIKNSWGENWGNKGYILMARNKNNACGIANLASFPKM

Naegleria fowleri cystatin (recombinant, without signal presequence) (natural protein)
stoichiometry N [1]: 4 and 2 | IC50 of inhibition of peptidase activity (Z-Phe-Arg-AMC cleavage), 50 nM enzyme, 5 nM – 2 µM Nf cystatin, pH 5.5 [2]: 31 nM | IC50 of inhibition of peptidase activity (Z-Phe-Arg-AMC cleavage), 50 nM enzyme, 5 nM – 2 µM Nf cystatin, pH 5.5 [3]: 517 nM
